# Target: EGFRvIII (on U87-EGFRvIII cells) del30-297 (UniProt P00533)
# Experiment: cell ELISA
# Conditions: apparent Kd, fixed U87-EGFRvIII cells, 3% BSA in PBST block (PBS, 0.01% Tween 20, pH 7.4), 37 C 40 min, SELEX binding buffer: PBS, 5 mM MgCl2, glucose, yeast tRNA, salmon …
row,Sequence,Kd
1,ATCCAGAGTGACGCAGCATGAATCTTTTCTTTTGGTTTTGATATTTATAGTTGGTGAATGGACACGGTGGCTTAGT [U8],4.35 nM
2,ATCCAGAGTGACGCAGCATTTTGACGCTTTATCCTTTTCTTATGGCGGGATAGTTTCGTGGACACGGTGGCTTAGT [U2],3.37 nM

# Reference: publication PMC3948368
